Data on six molecules can be found in patent US20130330346A1 (Novartis, published 2013).

The term IC50 denotes the concentration at which inhibition is half-maximal. Lower therefore signals inhibition by little substance.

Where a chain is given by its changes, count along the chain named. Like-named read-outs stand apart in the source and are kept apart here. Ends that are not written are not given here. Where only a bound is given, the exact number is not on record here.

The target in assay [1] is T1, Human CXCR2 (human, UniProt P25025 1-360).
T1 construct: Some cell lines carry an N-terminal 3xHA tag; also called hCXCR2; huCXCR2
T1 sequence: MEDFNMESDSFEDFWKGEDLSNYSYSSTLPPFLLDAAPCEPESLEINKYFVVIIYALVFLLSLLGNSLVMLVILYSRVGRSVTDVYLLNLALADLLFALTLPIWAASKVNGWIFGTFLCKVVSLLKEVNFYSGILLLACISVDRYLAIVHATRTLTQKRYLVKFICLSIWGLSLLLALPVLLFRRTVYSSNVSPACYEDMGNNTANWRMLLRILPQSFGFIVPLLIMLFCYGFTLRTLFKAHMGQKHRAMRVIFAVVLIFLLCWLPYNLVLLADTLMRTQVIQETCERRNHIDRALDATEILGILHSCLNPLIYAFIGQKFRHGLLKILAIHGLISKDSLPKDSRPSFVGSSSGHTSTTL
The experiment in a line: immunoluminescence, HEK-293T with wild type receptor, 1.0 ug/ml, anti-myc detection.

Assay [2] addresses T2, Cynomolgus CXCR2 (cynomolgus, UniProt Q28519 3-353 (rhesus entry)).
T2 chain: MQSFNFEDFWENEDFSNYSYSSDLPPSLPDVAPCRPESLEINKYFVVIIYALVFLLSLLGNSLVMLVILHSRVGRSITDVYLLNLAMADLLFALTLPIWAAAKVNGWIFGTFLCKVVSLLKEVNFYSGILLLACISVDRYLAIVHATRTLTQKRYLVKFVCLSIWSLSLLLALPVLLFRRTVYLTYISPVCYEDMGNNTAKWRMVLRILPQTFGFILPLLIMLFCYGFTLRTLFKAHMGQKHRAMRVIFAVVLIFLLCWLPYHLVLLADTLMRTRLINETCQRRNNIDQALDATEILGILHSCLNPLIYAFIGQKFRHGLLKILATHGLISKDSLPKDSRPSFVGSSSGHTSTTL
The experiment in a line: cell-based or functional assay.

Assay [3] deals with T1, Human CXCR2. Put plainly: cell-based or functional assay.
The target in assay [4] is T2, Cynomolgus CXCR2. Put plainly: FACS hGro-α competition.
Assay [5] addresses T1, Human CXCR2. Put plainly: FACS hGro-α competition.
Assay [6] addresses T2, Cynomolgus CXCR2. Put plainly: cell-based or functional assay.
Assay [7] addresses T1, Human CXCR2. Put plainly: cell-based or functional assay. This is another data set of the same source.
In assay [8] the target is T2, Cynomolgus CXCR2. Put plainly: FACS hGro-α competition.
Assay [9] has as its target T1, Human CXCR2. Put plainly: FACS hGro-α competition. The source holds these as a separate data set.
Assay [10] addresses T2, Cynomolgus CXCR2. The experiment in a line: cell-based or functional assay.
In assay [11] the target is T1, Human CXCR2. The experiment in a line: cell-based or functional assay. This is another data set of the same source.
Assay [12] concerns the target T2, Cynomolgus CXCR2. Put plainly: FACS competition vs 3 nM FMAT-Blue Gro-α. As for the experimental part:
(§1) Purified monovalent anti-CXCR2Nanobodies were titrated against 3 nM FMAT-Blue-labeled Gro-α in the FACS ligand competition assay on human and cynomolgus CXCR2 (Table 10). On human CXCR2, blocking potencies range between double digit nM and sub-nM whereas on cynomolgus CXCR2, they range between single and double digit nM.

Assay [13] deals with T1, Human CXCR2. The experiment in a line: FACS competition vs 3 nM FMAT-Blue Gro-α. As for the experimental part: as §1
Assay [14] concerns the target T3, Human 1to19 peptide (human).
T3 construct: First 19 N-terminal amino acids of human CXCR2, captured on neutravidin; also called human CXCR2 1 to19 peptide; 1-19 Nter peptide
T3 peptide: MEDFNMESDSFEDFWKGED-biotin
The experiment in a line: ELISA, periplasmic extract on biotinylated peptide. A digest of the protocol: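 Neutravidin-coated, casein-blocked plates captured 100 nM biotinylated human 1–19 peptide; 10-fold dilutions of periplasmic Nanobody extracts bound 1 h. Detection via mouse anti-myc then anti-mouse-HRP; value is ratio of binding signal over an irrelevant control Nanobody.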

The target in assay [15] is T2, Cynomolgus CXCR2. Put plainly: cell-based or functional assay.
The target in assay [16] is T1, Human CXCR2. The experiment in a line: cell-based or functional assay. This is another data set of the same source.
The target of assay [17] is T2, Cynomolgus CXCR2. The experiment in a line: FACS hGro-α competition.
In assay [18] the target is T2, Cynomolgus CXCR2. The experiment in a line: cell-based or functional assay.
Assay [19] deals with T1, Human CXCR2. Put plainly: cell-based or functional assay. This is another data set of the same source.
The target of assay [20] is T1, Human CXCR2. The experiment in a line: cell-based or functional assay. This is another data set of the same source.
The target in assay [21] is T2, Cynomolgus CXCR2. The experiment in a line: cell-based or functional assay.
Assay [22] has as its target T1, Human CXCR2. The experiment in a line: cell-based or functional assay. This is another data set of the same source.
Assay [23] deals with T1, Human CXCR2. Put plainly: FACS, periplasmic extract vs FMAT Blue Gro-α. A digest of the protocol: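 Cells (2×10⁵) preincubated 30 min at 4 °C with ½-diluted periplasmic extracts in PBS/10% FBS. An equal volume of 6 nM FMAT Blue-labelled human Gro-α was then added for another 30 min at 4 °C in the dark. After washing, dead cells were excluded with propidium iodide and binding read by flow cytometry.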
For orientation: A flow cytometer gives signals particle by particle.

Assay [24] deals with T3, Human 1to19 peptide. The experiment in a line: peptide ELISA of Table 8 (ratio 0.6).
In assay [25] the target is T2, Cynomolgus CXCR2. The experiment in a line: FACS hGro-α competition.
The target in assay [26] is T1, Human CXCR2. The experiment in a line: FACS hGro-α competition. This is another data set of the same source.
Assay [27] addresses T1, Human CXCR2. The experiment in a line: immunoluminescence, HEK-293T with wild type receptor, 2.0 ug/ml, anti-myc detection.

B1: CXCR20079 (VHH)
VHH: EVQLLESGGGLVQPGGSLRLSCAASGSTFDFKVMGWYRQAPGKQREGVAAIRLSGNRHYAESVKGRFTISRANSKNTVYLQMNSLRPEDTAVYYCKVNIRGQDYWGQGTLVTVSS
notes: also called RD-HBC792; RDHBC 792
Turning to B1, the “Signal:Background” value in assay [1] was found to be 13 ratio. The “FLIPR hGro-α IC50” value was found to be 450 nM in assay [2] and 10 nM in [3]. Also, the IC50 in [4] was found to be 2.8 nM; in assay [5], 0.8 nM.

B2: CXCR20061 (VHH)
VHH: EVQLLESGGGLVQPGGSLRLSCAASGSIVRINTMGWYRQAPGKQRELVADITSGGNINYADSVKGRFTISRDNSKNTVYLQMNSLRPEDTAVYYCNAEIVVLVGVWTQRARTGNYWGQGTLVTVSS
notes: also called RD-HBC793; RDHBC 793
With B2, in assay [1], the “Signal:Background” value is 6.9 ratio. Further, the “FLIPR hGro-α IC50” value is 350 nM in [6] and 66 nM in [7]. Further, the IC50 is 62 nM in [8] and 15 nM in [9].

B3: 54B12 (VHH)
VHH: EVQLVESGGGLVQAGGSLTLSCAVSGSTFRINTMGWYRRAPGKQRELVAARDRGGYINYVDSVKGRFTVSRDNAKPTMYLQMNSLKPEDTAVYYCHAGTQDRTGRNFDRWGQGTQVTVSS
notes: Tested as periplasmic extract (pAX50) and as purified His6-tagged protein (pAX100); also called 054B12; not shown: C-terminal c-myc tag and His6 tag coded by the vector
For the molecule B3, the “FLIPR hGro-α IC50” value in [10] came out at 1100 nM. Also, the “FLIPR hGro-α IC50” value in [11] came to 150 nM. In [12], the “% inhibition of max” value was 63% and the IC50 worked out at 39.5 nM. In assay [13], the “% inhibition of max” value amounted to 35% and the IC50 came to 0.857 nM. Besides, in assay [14], the “ratio of binding signal relative to blank control” value was 75.5 ratio. Also, the “Cynomologus WBSC IC50 (rhGROα)” value in assay [15] was above 100 nM. For the same molecule, the “Human WBSC IC50 (rhGROα)” value in assay [16] came to 19.7 nM. The IC50 in [17] was 33 nM. In assay [18], the “FLIPR % inhibition max” value is 100% and the “FLIPR IC50 (GRO-α induced calcium release)” value worked out at 4080 nM. For the same molecule, in [19], the “FLIPR % inhibition max” value worked out at 100%, the “FLIPR IC50 (GRO-α induced calcium release)” value turned out to be 153 nM, the “[35S]GTPγS % inhibition max (GRO-α)” value came to 71.8% and the “[35S]GTPγS IC50 (GRO-α)” value is 15.4 nM.

B4: CXCR20104 (VHH)
VHH: B3 VHH with V5L, A14P, T19R, R39Q, V69I, A74S, K86R, Q115L
notes: also called CXCR2104
On to B4, for which the “FLIPR hGro-α IC50” value in [10] amounted to 3500 nM; in assay [11] it was 59 nM. The IC50 in [17] was found to be 13 nM.

B5: 163E3 (VHH)
VHH: EVQLVESGGGLVQPGGSLRLSCVASGRIFSSNAMGWFRQAPGKEREFVAAITWRSGGSAYYADSAKGRFTISRDNAKNTVYLQMNSLKPEDTAVYYCAAGGSSWLSFPPDYWGQGTQVTVSS
notes: Tested as periplasmic extract (pAX50) and as purified His6-tagged protein (pAX100); also called 163E03; not shown: C-terminal c-myc tag and His6 tag coded by the vector
For B5, in assay [20], the “IC50 (M) at 5 nM GROα (inhibition of GRO-α, FIG. 2)” value was 3.03e-08 M; the “IC50 (M) at 15 nM GROα (inhibition of GRO-α, FIG. 2)” value turned out to be 4.04e-08 M; the “IC50 (M) at 45 nM GROα (inhibition of GRO-α, FIG. 2)” value came out at 7.54e-08 M; the “IC50 (M) at 150 nM GROα (inhibition of GRO-α, FIG. 2)” value was found to be 1.87e-07 M. The “FLIPR hGro-α IC50” value in [21] came to 150 nM. In assay [22], the “FLIPR hGro-α IC50” value is 35 nM. In addition, the “FACS Gro-α competition (% inhibition)” value in assay [23] came to 80.1%. Moreover, in assay [12], the “% inhibition of max” value is 83.5% and the IC50 came out at 14.8 nM. Besides, in assay [13], the “% inhibition of max” value amounted to 92.4% and the IC50 was 8.96 nM. In addition, in assay [24], the binding result is listed as “no binding”. For the same molecule, the “ratio of binding signal relative to blank control” value in assay [14] was 0.6 ratio. Besides, the “Cynomologus WBSC IC50 (rhGROα)” value in assay [15] was above 100 nM. Moreover, in assay [16], the “Human Chemotaxis IC50 (GROα)” value is 9.3 nM and the “Human WBSC IC50 (rhGROα)” value was 9.4 nM. Also, in [18], the “FLIPR % inhibition max” value stood at 100% and the “FLIPR IC50 (GRO-α induced calcium release)” value worked out at 158 nM. For the same molecule, in assay [19], the “FLIPR % inhibition max” value turned out to be 100%, the “FLIPR IC50 (GRO-α induced calcium release)” value was 44.3 nM, the “[35S]GTPγS % inhibition max (GRO-α)” value turned out to be 100% and the “[35S]GTPγS IC50 (GRO-α)” value came out at 64.7 nM. Besides, the IC50 in [25] amounted to 22 nM. The molecule further registered an IC50 in assay [26] of 10 nM.

B6: CXCR20076 (VHH)
VHH: B5 VHH with V5L, V23A, A65V, A76S, K88R, Q117L
notes: also called RD-HBC794; MAb 794
For B6, the “FLIPR hGro-α IC50” value was 100 nM in assay [21] and 31 nM in assay [22]. In assay [27], the “Signal:Background” value worked out at 20 ratio. Further, the IC50 in assay [25] worked out at 25 nM; in assay [26], 16 nM.
